Source: paper PMC6475665, “Alone at last! – Heterologous expression of a single gene is sufficient for establishing the five-step Weimberg pathway in Corynebacterium glutamicum” (Metabolic Engineering Communications, 2019)

Substrate: O=CCCC(=O)C(=O)O
Assay: purified protein
Format: biochemical, Corynebacterium glutamicum
Settings: 5 mM NAD+, 100 mM potassium phosphate, pH 7.5, 30 °C

B1: KsaD (Cg0535) (Corynebacterium glutamicum ATCC 13032) (protein)
chain: MITATALHGCSLIDGEWVAGKNGEITGFDPRTNASLNPSYSLANSAQLRAATTSAKRAFESYRLTTPEVRADFLDSIADNIDALSGEIVQRASLETGLGTTRLTGEVARTSNQLRLFAETVRSGQFHRVRIERGPRIDLRQRQVPLGPVAVFGASNFPVAFSTAGGDTASALAAGCPVVFKAHNAHPGTAELVGQAVRGAVEKHEFDAGVFNLVYGRGVEIGQELAADPNITAIGFTGSRQGGLALSQTAFSRPVPVPVFAEMSATNPVFVFPGALADLDASSSLAEAFTASVTGSSGQLCTKPGLVFIPRGVVGDAFVALVAAKFKETTGQTMLTQGIAQAWQRGVDNLAAQPSVKILAQGTPGDGENAPGPVVFESDVQALLNNVVLQEEIFGAASLVVRYDSPDQLHQVANSLEGQLTATIHASQDDFQEVSKLIPLLEDLAGRVLYGGWPTGVEVGHTVIHGGPYPATSNAQSTSVGTLAIERFMRPVSYQTFPAELLPDPVSEANKWAVPREIDR
notes: N-terminus MITATA after tag (from primer)
Q: With B1 as the protein, how does the Km read?
A: Its Km is 870 µM.
